# In the RNAGym collection of RNA variant scans (doi:10.1093/molbev/msab373):
# B1: Azoarcus group I ribozyme (parent)
# chain: GUGCCUUGCGCCGGGAAACCACGCAAGGGAUGGUGUCAAAUUCGGCGAAACCUAAGCGCCCGCCCGGGCGUAUGGCAACGCCGAGCCAAGCUUCGGCGCCUGCGCCGAUGAAGGUGUAGAGACUAGACGGCACCCACCUAAGGCAAACGCUAUGGUGAAGGCAUAGUCCAGGGAGUGGCGAAAGUCACACAAACCGG
# Variants of: B1
# Assay: reverse-splicing fitness (ratio to wild type); higher = more active; in vitro selection; Mg2+ level not given
# Method in brief: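 An in vitro group I ribozyme library with randomized positions was T7-transcribed and gel-purified. In triplicate, 10 pmol RNA in EPPS pH 7.5 was reacted with 50 pmoles of a 30-nt RNA substrate for 1 h at 37 °C across several added MgCl2 levels (1–48 mM), then stopped with EDTA. Products were reverse transcribed from a substrate-complementary primer, PCR-amplified and sequenced (HiSeq 4000). Fitness is a variant's read proportion after selection over that before, normalised to wild type.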
row,Variant,reverse-splicing fitness
1,C82A A111U A120C A145U C150U C169A U176G,0.00837
2,C82A A111U A120C A145U C150U C169G,0.00959
3,C82A A111U A120C A145U C150U C169G U176A,0.016
4,C82A A111U A120C A145U C150U C169G U176C,0.0244
5,C82A A111U A120C A145U C150U C169G U176G,0.00736
6,C82A A111U A120C A145U C150U C169U,0.0116
7,C82A A111U A120C A145U C150U C169U U176A,0.0157
8,C82A A111U A120C A145U C150U C169U U176C,0.0137
9,C82A A111U A120C A145U C150U C169U U176G,0.00816
10,C82A A111U A120C A145U C150U U176A,0.0138
11,C82A A111U A120C A145U C150U U176C,0.0191
12,C82A A111U A120C A145U C150U U176G,0.00684
13,C82A A111U A120C A145U C169A,0.00981
14,C82A A111U A120C A145U C169A U176A,0.0227
15,C82A A111U A120C A145U C169A U176C,0.0235
16,C82A A111U A120C A145U C169A U176G,0.00804
17,C82A A111U A120C A145U C169G,0.0114
18,C82A A111U A120C A145U C169G U176A,0.0204
19,C82A A111U A120C A145U C169G U176C,0.0253
20,C82A A111U A120C A145U C169G U176G,0.00642
21,C82A A111U A120C A145U C169U,0.0129

row,Variant,reverse-splicing fitness
1,C82A A111U A120C A145U C169U U176A,0.0151
2,C82A A111U A120C A145U C169U U176C,0.0156
3,C82A A111U A120C A145U C169U U176G,0.00555
4,C82A A111U A120C A145U U176A,0.0168
5,C82A A111U A120C A145U U176C,0.0276
6,C82A A111U A120C A145U U176G,0.00733
7,C82A A111U A120C C150A,0.0118
8,C82A A111U A120C C150A C169A,0.0122
9,C82A A111U A120C C150A C169A U176A,0.0227
10,C82A A111U A120C C150A C169A U176C,0.0233
11,C82A A111U A120C C150A C169A U176G,0.0108
12,C82A A111U A120C C150A C169G,0.0103
13,C82A A111U A120C C150A C169G U176A,0.0199
14,C82A A111U A120C C150A C169G U176C,0.0312
15,C82A A111U A120C C150A C169G U176G,0.00775
16,C82A A111U A120C C150A C169U,0.0129
17,C82A A111U A120C C150A C169U U176A,0.0186
18,C82A A111U A120C C150A C169U U176C,0.0167
19,C82A A111U A120C C150A C169U U176G,0.00905
20,C82A A111U A120C C150A U176A,0.0129
21,C82A A111U A120C C150A U176C,0.0239

row,Variant,reverse-splicing fitness
1,C82A A111U A120C C150A U176G,0.00881
2,C82A A111U A120C C150G,0.00909
3,C82A A111U A120C C150G C169A,0.0101
4,C82A A111U A120C C150G C169A U176A,0.0125
5,C82A A111U A120C C150G C169A U176C,0.0122
6,C82A A111U A120C C150G C169A U176G,0.00717
7,C82A A111U A120C C150G C169G,0.00832
8,C82A A111U A120C C150G C169G U176A,0.00746
9,C82A A111U A120C C150G C169G U176C,0.00529
10,C82A A111U A120C C150G C169G U176G,0.00574
11,C82A A111U A120C C150G C169U,0.0101
12,C82A A111U A120C C150G C169U U176A,0.00757
13,C82A A111U A120C C150G C169U U176C,0.011
14,C82A A111U A120C C150G C169U U176G,0.0062
15,C82A A111U A120C C150G U176A,0.00671
16,C82A A111U A120C C150G U176C,0.0098
17,C82A A111U A120C C150G U176G,0.00421
18,C82A A111U A120C C150U,0.0206
19,C82A A111U A120C C150U C169A,0.0109
20,C82A A111U A120C C150U C169A U176A,0.0162
21,C82A A111U A120C C150U C169A U176C,0.0174

row,Variant,reverse-splicing fitness
1,C82A A111U A120C C150U C169A U176G,0.00841
2,C82A A111U A120C C150U C169G,0.00831
3,C82A A111U A120C C150U C169G U176A,0.0159
4,C82A A111U A120C C150U C169G U176C,0.0205
5,C82A A111U A120C C150U C169G U176G,0.00747
6,C82A A111U A120C C150U C169U,0.0121
7,C82A A111U A120C C150U C169U U176A,0.0156
8,C82A A111U A120C C150U C169U U176C,0.0145
9,C82A A111U A120C C150U C169U U176G,0.00737
10,C82A A111U A120C C150U U176A,0.0125
11,C82A A111U A120C C150U U176C,0.022
12,C82A A111U A120C C150U U176G,0.00805
13,C82A A111U A120C C169A,0.00982
14,C82A A111U A120C C169A U176A,0.0222
15,C82A A111U A120C C169A U176C,0.0277
16,C82A A111U A120C C169A U176G,0.00734
17,C82A A111U A120C C169G,0.00957
18,C82A A111U A120C C169G U176A,0.0231
19,C82A A111U A120C C169G U176C,0.0298
20,C82A A111U A120C C169G U176G,0.00706
